The results in this text go back to publication PMC6532589.

The data set addresses human alpha-thrombin (human, UniProt P00734;P00734 328-363;364-622). The experiment in a line: centrifugation separation, free thrombin by fibrinogen-Au NP assay, Scatchard; graphene oxide carrier; 100 uM BSA; PBS (1X: 137 mM NaCl, 2.7 mM KCl, 10 mM Na2HPO4, 1.8 mM KH2PO4, pH 7.4) with 100 uM BSA, 30 min; 100 pM Supra-TBA15/29, thrombin 0-1 nM; temperature not stated.

B1: Supra-TBA15/29-GO (sTBA15 + sTBA29 network on graphene oxide) (mixed)
DNA 1: AAAAAAAAAAAAAAAAAAAACGACCTGTACGACTCTTTTTTCAGGGTTGGTGTGGTTGGCTGATTTTTATCTTCACGAGCACT
DNA 2: GAGTCGTACAGGTCGTTTTTAGTCCGTGGTAGGGCAGGTTGGGGTGACTTTTTTAGTGCTCGTGAAGATAAAAAAAAAAAAAAAAAAAA
modifications: adsorbed on graphene oxide through A20 tails (40 ug/mL GO, 60 C)
As for B1, the dissociation constant (Kd) amounted to 0.019 nM.
